Data reported in the RNAGym collection of RNA variant scans (doi:10.1021/acssynbio.7b00057).

B1: Pistol ribozyme (parent)
chain: GGGUCGUUGUUCCAUAAUCGCGUGGAUAUGGCACGCAAGUUUCUACCGGGCACCGUAAAUGUCCGACUGGAGCCGUUCGGGCGGCUAUAAACAGACCUCAGGCCCGAAGCGUGGCGGCACCUGCCGCCGGUGGUAAAAAAGAUCGGAAGAGCACACGUCU

Variants of: B1
Experiment: aptazyme ON/OFF ratio, guanine; higher = stronger switching; co-transcriptional cleavage with and without guanine

| Variant | aptazyme ON/OFF ratio |
| --- | --- |
| U7G U8C G9A U10A U11C C13U | 1.08 |
| U7G U8C G9A U10A U11C C13A | 1.1 |
| U7G U8C G9A U10A U11C C13G | 1.05 |
| U7G U8C G9A U10C U11G C12G C13A | 1.08 |
| U7G U8C G9A U10C U11G C12G C13U | 1.05 |
| U7G U8C G9A U10C U11G C12G C13G | 1.08 |
| U7G U8A U10G C12U C13U | 1.12 |
| U7G U8A U10G U11A C12A C13A | 1.47 |
| U7G U8A U10G U11A C12A C13U | 1.12 |
| U7G U8A U10G U11A C12A C13G | 1.15 |
| U7G U8C G9A U10A U11G C12G C13U | 1.09 |
| U7G U8C G9A U10A U11G C12G C13G | 1.14 |
| U7G U8C G9A U10A U11G C12G C13A | 1.08 |
| U7G U8C G9A U10A U11A C12A C13G | 1.12 |
| U7G U8C G9A U10A U11A C12A C13U | 1.17 |
| U7G U8C G9A U10A U11A C12A C13A | 1.21 |
| U7G U8C G9A U10C U11G C13A | 1.16 |
| U7G U8C G9A U10C U11G C13G | 1.27 |
| U7G U8C G9A U10C U11G C13U | 1.24 |
| U7G U8C G9A U10G U11G C12G C13U | 1.14 |
| U7G U8C G9A U10G U11G C12G C13G | 1.2 |
| U7G U8C G9A U10G U11G C12G C13A | 1.13 |
| U7G U8A U11C C13G | 1.11 |
| U7G U8A U11C C13U | 1.2 |

| Variant | aptazyme ON/OFF ratio |
| --- | --- |
| U7G U8A U11C C13A | 1.32 |
| U7G U8C G9A U10A C12G C13G | 1.08 |
| U7G U8C G9A U10A C12G C13U | 1.15 |
| U7G U8C G9A U10A C12G C13A | 1.07 |
| U7G U8C G9A U10G U11A C12A C13U | 1.11 |
| U7G U8C G9A U10G U11A C12A C13A | 1.04 |
| U7G U8C G9A U10G U11A C12A C13G | 1.09 |
| U7G U8C G9A U10C U11G | 1.5 |
| U7G U8C G9A U10C U11C | 1.16 |
| U7G U8C G9A U10C U11A | 3.52 |
| U7G U8C G9A U10A U11G C12U C13A | 1.16 |
| U7G U8C G9A U10A U11G C12U C13G | 1.2 |
| U7G U8C G9A U10A U11G C12U C13U | 1.21 |
| U7G U8A U11C C12G C13G | 1.2 |
| U7G U8A U11C C12G C13U | 1.32 |
| U7G U8A U11C C12G C13A | 1.22 |
| U7G U8C G9A U10C U11A C12G | 1.18 |
| U7G U8C G9A U10C U11A C12U | 1.18 |
| U7G U8C G9A U10C U11A C12A | 1.33 |
| U7G U8A U11A C12G C13G | 1.18 |
| U7G U8A U11A C12G C13A | 1.08 |
| U7G U8A U11A C12G C13U | 1.21 |
| U7G U8C G9A U10A C13U | 1.83 |
| U7G U8C G9A U10A C13G | 1.06 |

| Variant | aptazyme ON/OFF ratio |
| --- | --- |
| U7G U8C G9A U10A C13A | 1.19 |
| U7G U8C G9A U10C U11A C12U C13U | 1.02 |
| U7G U8C G9A U10C U11A C12U C13A | 1.08 |
| U7G U8C G9A U10C U11A C12U C13G | 1.06 |
| U7G U8A U10G U11A C12G | 1.43 |
| U7G U8A U10G U11A C12A | 1.16 |
| U7G U8A U10G U11A C12U | 1.23 |
| U7G U8C C12A C13G | 1.1 |
| U7G U8C C12A C13A | 1.13 |
| U7G U8C C12A C13U | 1.08 |
| U7G U8C G9A U11A C12G C13A | 1.05 |
| U7G U8C G9A U11A C12G C13U | 1.1 |
| U7G U8C G9A U11A C12G C13G | 1.06 |
| U7G U8C G9A U10C U11G C12A C13A | 1.11 |
| U7G U8C G9A U10C U11G C12A C13U | 1.16 |
| U7G U8C G9A U10C U11G C12A C13G | 1.08 |
| U7G U8C G9A C12G C13G | 1.04 |
| U7G U8C G9A C12G C13A | 1.05 |
| U7G U8C G9A C12G C13U | 1.03 |
| U7G U8C G9A U10G C12U | 1.35 |
| U7G U8C G9A U10G C12G | 1.13 |
| U7G U8C G9A U10G C12A | 1.18 |
| U7G U8C G9A U10G U11G C12U | 1.35 |
| U7G U8C G9A U10G U11G C12A | 1.3 |

| Variant | aptazyme ON/OFF ratio |
| --- | --- |
| U7G U8C G9A U10G U11G C12G | 1.27 |
| U7G U8C G9A U10G U11G C12U C13A | 1.28 |
| U7G U8C G9A U10G U11G C12U C13G | 1.22 |
| U7G U8C G9A U10G U11G C12U C13U | 1.52 |
| U7G U8C G9A U10C U11C C12A C13U | 1.2 |
| U7G U8C G9A U10C U11C C12A C13G | 1.28 |
| U7G U8C G9A U10C U11C C12A C13A | 1.2 |
| U7G U8C G9A | 4.1 |
| U7G U8C C12G | 1.12 |
| U7G U8C C12U | 1.2 |
| U7G U8C C12A | 1.05 |
| U7G U8A U10G U11G C12U C13A | 1.44 |
| U7G U8A U10G U11G C12U C13G | 1.16 |
| U7G U8A U10G U11G C12U C13U | 1.65 |
| U7G U8C G9A U10A U11C C12U C13G | 1.13 |
| U7G U8C G9A U10A U11C C12U C13U | 1.16 |
| U7G U8C G9A U10A U11C C12U C13A | 1.14 |
| U7G U8C G9A U10G U11C C13A | 1.14 |
| U7G U8C G9A U10G U11C C13U | 1.05 |
| U7G U8C G9A U10G U11C C13G | 1.07 |
| U7G U8C G9A U11A C12A C13A | 1.08 |
| U7G U8C G9A U11A C12A C13U | 1.11 |
| U7G U8C G9A U11A C12A C13G | 1.07 |
| U7G U8C G9A U10A U11C C12G C13U | 1.09 |

| Variant | aptazyme ON/OFF ratio |
| --- | --- |
| U7G U8C G9A U10A U11C C12G C13A | 1.08 |
| U7G U8C G9A U10A U11C C12G C13G | 1.03 |
| U7G U8A U11C | 2.05 |
| U7G U8A U11G | 1.24 |
| U7G U8A U11A | 2.25 |
| U7G U8C G9A U10C U11A C13U | 1.28 |
| U7G U8C G9A U10C U11A C13G | 1.07 |
| U7G U8C G9A U10C U11A C13A | 1.18 |
| U7G U8C G9A U10C C12G C13A | 1.12 |
| U7G U8C G9A U10C C12G C13U | 1.28 |
| U7G U8C G9A U10C C12G C13G | 1.19 |
| U7G U8C G9A U10G C12A C13G | 1.03 |
| U7G U8C G9A U10G C12A C13A | 1.07 |
| U7G U8C G9A U10G C12A C13U | 1.09 |
| U7G U8A U10G U11C C13G | 1.16 |
| U7G U8A U10G U11C C13A | 1.21 |
| U7G U8A U10G U11C C13U | 1.5 |
| U7G U8C G9A U10G | 3.04 |
| U7G U8C G9A U10C | 3.27 |
| U7G U8C G9A U10A | 3.78 |
| U7G U8C G9A U10A C12U C13U | 1.05 |
| U7G U8C G9A U10A C12U C13G | 1.13 |
| U7G U8C G9A U10A C12U C13A | 1.15 |
| U7G U8A U10G U11G C12G | 1.5 |

| Variant | aptazyme ON/OFF ratio |
| --- | --- |
| U7G U8A U10G U11G C12U | 1.26 |
| U7G U8A U10G U11G C12A | 1.3 |
| U7G U8C C12U C13U | 1.07 |
| U7G U8C C12U C13G | 1.19 |
| U7G U8C C12U C13A | 1.05 |
| U7G U8C G9A U10C U11A C12A C13A | 1.15 |
| U7G U8C G9A U10C U11A C12A C13U | 1.14 |
| U7G U8C G9A U10C U11A C12A C13G | 1.11 |
| U7G U8C G9A U10C C13U | 1.58 |
| U7G U8C G9A U10C C13A | 1.07 |
| U7G U8C G9A U10C C13G | 1.08 |
| U7G U8A U11A C12A C13U | 1.39 |
| U7G U8A U11A C12A C13G | 1.24 |
| U7G U8A U11A C12A C13A | 1.35 |
| U7G U8A U10G U11A C13G | 1.23 |
| U7G U8A U10G U11A C13A | 1.18 |
| U7G U8A U10G U11A C13U | 1.4 |
| U7G U8C G9A U11A | 2.48 |
| U7G U8C G9A U10A C12G | 1.24 |
| U7G U8C G9A U10A C12U | 1.62 |
| U7G U8C G9A U10A C12A | 1.15 |
| U7G U8C G9A U10G U11C C12G C13A | 1.14 |
| U7G U8C G9A U10G U11C C12G C13G | 1.02 |
| U7G U8C G9A U10G U11C C12G C13U | 1.18 |

| Variant | aptazyme ON/OFF ratio |
| --- | --- |
| U7G U8C G9A U10G U11C C12A C13G | 1.16 |
| U7G U8C G9A U10G U11C C12A C13U | 1.19 |
| U7G U8C G9A U10G U11C C12A C13A | 1.15 |
| U7G U8C G9A C12A | 1.06 |
| U7G U8C G9A C12G | 1.07 |
| U7G U8C G9A C12U | 1.07 |
| U7G U8C G9A U10G U11C C12A | 1.3 |
| U7G U8C G9A U10G U11C C12U | 1.09 |
| U7G U8C G9A U10G U11C C12G | 1.2 |
| U7G U8A U10G U11G C13A | 1.28 |
| U7G U8A U10G U11G C13G | 1.43 |
| U7G U8A U10G U11G C13U | 1.42 |
| U7G U8A U10G U11A C12U C13U | 1.1 |
| U7G U8A U10G U11A C12U C13G | 1.37 |
| U7G U8A U10G U11A C12U C13A | 1.37 |
| U7G U8C G9A U10C C12U C13A | 1.15 |
| U7G U8C G9A U10C C12U C13U | 1.08 |
| U7G U8C G9A U10C C12U C13G | 1.11 |
| U7G U8A U10G U11A C12G C13U | 1.23 |
| U7G U8A U10G U11A C12G C13G | 1.25 |
| U7G U8A U10G U11A C12G C13A | 1.11 |
| U7G U8C G9A U10G U11A C12G C13U | 1.12 |
| U7G U8C G9A U10G U11A C12G C13G | 1.24 |
